Assay results as given in patent publication US20220315908A1, “NOVEL GARDNERELLA ENDOLYSINS AND USES THEREOF” (priority 2019, published 2022).

B1: H12B12: natural Gardnerella prophage endolysin from strain 3549624 (protein)
chain: MSKKGIDVSVWQGDIDFNAVKASGVEFVIIRAGYGIGHKDKWFEENYRKAKTAGLDVGSYWYSYASSAGEVALEAQSCVNILSGKSFEYPVYFDLEEKSQLNRGRDFCDSLITSFCNKLEACGYYAGFYTSLSVANNLVSSHVRDRYALWIAQWNTHCSYQGSYGLWQYSSSGSVNGIAGRVDMDYAYVDYPSVIKNAGLNGYQNGGSYTAPQTSSIDEVAREVINGDWGNGIERKNRLTSAGYDYTSVQNKVNELLGVKAYRKSVDELAREVIRGTWGNGKTRKQRLTQAGYDYNAVQKRVNELL
modifications: EL12_strain_3549624_non-prophage
B2: H11B11: natural Gardnerella prophage endolysin from strain JCP8017A (protein)
chain: MSKRGIDVSVWQGDIDFNAVKASGVEFVIIRAGYGIGHKDKWFEQNYRKAKTTGLDVGAYWYSYASSAGEAAEEAQSCVNILSGKSFEYPVYFDLEEKSQLNRGRDFCDSLITSFCNKLETYGYYAGFYTSLSVANNLVSSHVRDRYALWIAQWNTHCDYQGSYGLWQYSSSGSVDGIAGRVDMDYTYVDYPSVIKKAGLNGYKNGGSYTAPQTSSIDEVAREVINGDWGNGNERKNRLTSAGYDYTSVQNKVNELLGVKAYRKSVDELAREVIRGTWGNGSTRKQRLTQAGYDYDAVQKRVNELL
modifications: EL11_strain_JCP8017A
notes: natural Gardnerella prophage endolysin from strain JCP8017A

How the values were obtained:
[1] = system: G. vaginalis sensu stricto strain Gv_9; test: Quantitative reduction in viable CFU assay in bacterial suspension; assay type: cell-based, Gardnerella vaginalis sensu stricto; conditions: Gv_9; 5 hours, pH 5.0, anaerobic; 10 ul endolysin (0.2 mg/ml where possible) + 90 ul 5e7 CFU/ml; average of triplicate
Method: The lysis activity on the four main species of Gardnerella of 91 constructs (natural and domain-swapped endolysins) was quantitatively assessed using the method described in Reference Example 2. […]
(§1) The results are shown in FIGS. 8A to 8D together with Tables 5A to 5C. In FIGS. 8A to 8D, the logarithmic Y axis depicts the count of surviving cells. The dotted line indicates the limit of detection (LOD) given by plating of 2 ul of the reaction mix (500 CFU/ml). Each combination of the natural 10 H-domains and the natural 9 B-regions was assessed, including the natural endolysins (H1B1, H2B2, H3B3, etc.), plus H6B6. […] The activity of each construct was measured on each of the 4 main Gardnerella species G. vaginalis sensu stricto, G. leopoldii, G. piotii, and G. swidsinkii. All conditions have been measured in triplicate. The survival after 5 hours incubation at pH 5.0 under anaerobic conditions with endolysins vs. buffer was measured by quantitative plating. The values indicate the log 10 of the ratio of surviving CFU for treated vs. untreated cells. The average of the triplicate measurements is used. In tables 5A and 5B, high negative log 10 values, e.g. −6.7, −5.5, −4.8 etc. are associated with high enzymatic activity, while log 10 values closer to zero or even positive log 10 values are associated with low or no enzymatic activity. […] Inversely, a reduction value of −3.7 means a 10^3.7-fold (=5012-fold) reduction of viable CFU in treated sample vs. untreated control.
(§2) Gardnerella cells were recovered from cryo stock by plating on Chocolate Agar plates (Beckton Dickinson) and incubating for 48 h at 37° C. under anaerobic conditions. For Lactobacilli, BD Schaedler/5% sheep blood agar plates were used instead. Colonies were scraped from the plate, resuspended in Hardy Broth or NYC-III-HS-5.0 at the pH as indicated, and the suspension adjusted to OD (610 or 620 nm as indicated) 0.1. It has to be noted that two Tecan Microplate readers, having respectively a 610 nm or 620 nm filter, have been used interchangeably in the experiments. Although it doesn't make any difference for the experiments, the exact wavelength used is specified in each example. If not stated otherwise, 90 μl cell suspension was mixed with 10 μl endolysin solution, for the different species/endolysin combinations, in 384-well plates. OD(610-620 nm as indicated) was measured at the beginning of the reaction and at the end, either as two measurement points or as a continuous kinetic in a Tecan F200 Microplate reader. The reactions were incubated for 5 hours (or otherwise the time indicated) at 37° C. under anaerobic, micro-aerophilic or aerobic conditions as indicated. Anaerobic conditions intend that oxygen was fully depleted from the container in which the bacteria are incubated (Sigma-Aldrich anaerobic jar or sealable lunch box) with an anaerobic sachet, and the lack of oxygen was confirmed with an anaerobic indicator inside the container. Where micro-aerophilic conditions are indicated, the candle-in-a-jar method was used (tea candle lit in an appropriate sealable container, which reduces oxygen levels until the flame dies out). Then each well was diluted in 5 steps (10^−1 to 10^−5) using 96-U-well bottom plates, and 2 μl of each dilution of each reaction mix are plated on BD Chocolate agar plates or BD Schaedler/5% sheep blood agar plates for Gardnerella and Lactobacilli, respectively, for detecting and quantifying surviving CFU. Detection plates were incubated at 37° C. for 48 hours under anaerobic conditions.

[2] = system: four Gardnerella strains (Gv_9, Gv_11, Gv_17, Gv_23); test: CFU reduction averaged across the four Gardnerella strains, with activity ranks; assay type: cell-based; conditions: for average of the log 10 activities of each construct across the four Gardnerella strains: pH 5.0, 5 hours, anaerobic; for activity rank of all endolysins: rank 1-91, based on the data of Table 5B
Method: (§3) The lysis activity on the four main species of Gardnerella of 91 constructs (natural and domain-swapped endolysins) was quantitatively assessed using the method described in Reference Example 2. Briefly, 90 ul 5e7 CFU/ml of the indicated strain were incubated for 5 hours at pH 5.0 under anaerobic conditions with 10 ul endolysin (concentration adjusted to 0.2 mg/ml where possible, see Table 4).
as §1
as §2, with “out).” for “out). Then each well was diluted in 5 steps (10^−1 to 10^−5) using 96-U-well bottom plates, and 2 μl of each dilution of each reaction mix are plated on BD Chocolate agar plates or BD Schaedler/5% sheep blood agar plates for Gardnerella and Lactobacilli, respectively, for detecting and quantifying surviving CFU. Detection plates were incubated at 37° C. for 48 hours under anaerobic conditions.”

[3] = system: G. swidsinskii strain Gv_23; test: Quantitative reduction in viable CFU assay in bacterial suspension; assay type: cell-based, Gardnerella swidsinskii; conditions: 5 hours, pH 5.0, anaerobic, 10 ul endolysin (0.2 mg/ml where possible) + 90 ul 5e7 CFU/ml, average of triplicate
Method: as §3, §1, §2

Row | Molecule | log 10 of the ratio of surviving CFU for treated vs. untreated cells [1] | average of the log 10 activities of each construct across the four Gardnerella strains [2] | activity rank of all endolysins [2] | log 10 of the ratio of surviving CFU for treated vs. untreated cells [3]
1 | B1 | −0.2 log 10 | −0.9 log 10 | 73 | −1.9 log 10
2 | B2 | 0.1 log 10 | −1.5 log 10 | 57 | −3.5 log 10
